Laboratory results taken from PMC11941939, “Tackling Prostate Cancer with Theranostic E5B9-Bombesin Target Modules (TMs): From Imaging to Treatment with UniCAR T-Cells” (International Journal of Molecular Sciences, 2025).

Assays:
[1] = Dynamic PET imaging, tumor uptake in PC3 xenografts; format: in vivo, mouse; conditions: male, BALB/c Nude, mouse, PC3 xenograft tumor, iv, total radioactivity; PC3 tumor-bearing mice, PET, 60 min p.i., i.v., mean ± SEM, n = 4-6; read-out: SUVmean,60min tumor uptake
Description: (§1) For PET experiments and as prostate cancer xenograft models, male PC3 and LNCaP tumor-bearing BALB/c Nude mice were used (body weight: 22−24 g, Charles River Laboratories, Saint-Constant, QC, Canada). To generate the tumor xenografts, about 5−6 × 10^6 PC3 cells in 100 μL of PBS or 20−25 × 10^6 LNCaP cells in 200 μL of PBS/Matrigel (50/50) were subcutaneously injected into the left shoulder of male BALB/c Nude mice. For the androgen-dependent LNCaP model, a 1.5 mg pellet containing dehydroepiandrosterone DHEA (60-day release; Innovative Research of America, Sarasota, FL, U.S.A.) was implanted subcutaneously into the upper right flank shortly before LNCaP cell injection. PC3 tumors and LNCaP tumors reached sizes of ∼300−500 mm^3 after 3−5 weeks and 6−8 weeks, respectively, and were used for the in vivo experiments. PET imaging of E5B9-^68Ga-NOTA-BBN2 monomeric and dimeric TMs was performed on an INVEON® PET/CT scanner (Siemens Preclinical Solutions, Knoxville, TN, USA). Prior to radiotracer injection, mice were anesthetized through inhalation of isoflurane in 40% oxygen/60% nitrogen (gas flow 1 L/min), and body temperature was kept constant at 37 °C. The mice were placed in a prone position in the center of the field of view. A transmission scan for attenuation correction was not acquired. Mice were injected with 4−8 MBq of E5B9-^68Ga-NOTA-BBN2 or E5B9-^68Ga-NOTA-(BBN2)2 in 150 μL 10% EtOH/saline solution through a tail vein catheter. For blocking studies, PC3- and LNCaP-tumor-bearing […] mice were pre-dosed i.v. with 300 μg of Ava-BBN2 (15 min prior to radiotracer injection) in 50 uL saline. Data acquisition was performed over 60 min in 3D list mode. The dynamic list mode data were sorted into sinograms with 54 time frames (10 × 2, 8 × 5, 6 × 10, 6 × 20, 8 × 60, 10 × 120, 6 × 300 s). The frames were reconstructed using maximum a posteriori (MAP) as the reconstruction mode. No correction for partial volume effects was applied. The image files were processed using the ROVER v2.0.51 software (ABX GmbH, Radeberg, Germany). […] ROIs covered all visible tumor mass of the subcutaneous tumors, and the thresholds were defined by 50% of the maximum radioactivity uptake level. Mean standardized uptake values [SUVmean = (activity/mL tissue)/(injected activity/body weight), […]] were calculated for each ROI, and time−activity curves (TACs) were generated. For each experimental group (different radiotracers and mouse tumor models as well as control and blocking experiments), n = 3–6 mice were measured. […] Blocking experiments were conducted in the same mice: first, a control scan was measured and then repeated 1–2 days after in the presence of a blocking concentration of 300 μg of Ava-BBN2. All semi-quantified PET data are presented as means ± SEM. […]

LNCaP tumors = assay: Dynamic PET imaging, tumor uptake in LNCaP xenografts; format: in vivo, mouse; conditions: LNCaP tumors, pre-dosing i.v. with 300 µg Ava-BBN2 15 min before radiotracer, n = 3, p < 0.01
Description: as §1

[2] = as above; format: in vivo, mouse; conditions: male, BALB/c Nude, mouse, LNCaP xenograft tumor, iv, total radioactivity; LNCaP tumor-bearing mice, PET, 60 min p.i., i.v., mean ± SEM, n = 3-4; read-out: SUVmean,60min tumor uptake
Description: as §1

[3] = In vivo metabolic stability in venous blood plasma; parameters: species or system mouse; conditions: BALB/c mice, i.v., 60 min p.i., radio-HPLC, mean ± SEM, n = 3, listed as dimeric TM
Description: For metabolic stability studies in vivo, normal male BALB/c mice (body weight: 23−26 g, Charles River Laboratories, Saint-Constant, QC, Canada) were anesthetized through inhalation of isoflurane in 40% oxygen/60% nitrogen (gas flow 1 L/min) prior to i.v. radiotracer injection via the tail vein. Mice were injected with 28-50 MBq of E5B9-^68Ga-NOTA-BBN2 TM, E5B9-^68Ga-NOTA-(BBN2)2 TM, or ^68Ga-NOTA-Ava-Glu-(BBN2)2 dimer in 150 μL of 10% EtOH/saline. Venous blood samples were collected at 5, 15, 30, and 60 min post-injection via the mouse tail vein and further processed. Blood cells were separated by centrifugation (13,000 rpm × 5 min). The supernatant was removed, and the contained proteins were precipitated by the addition of 2 volume parts of methanol (2 vol of MeOH/1 vol of the sample). Another centrifugation step (13,000 rpm × 5 min) was performed to obtain plasma. The clear plasma supernatant was injected into a Shimadzu HPLC system. The samples were analyzed using a Phenomenex Luna 10u C18(2) 100A, 250 × 4.6 mm column, at a constant flow rate of 1 mL/min, and the following gradient with water/0.2% TFA as solvent A and acetonitrile as solvent B: 0−3 min 10% B, 10 min 30% B, 17 min 50% B, 23 min 70% B, and 27−30 min 90% B. For each radiotracer (monomers and dimers with and without E5B9) blood samples from n = 3 mice were analyzed. […]

CC[C@H](C)[C@@H](CCC(=O)N[C@H](C(N)=O)C(C)(C)C)NC(=O)[C@H](Cc1c[nH]cn1)NC(=O)CN(C)C(=O)[C@@H](NC(=O)[C@H](C)NC(=O)[C@H](Cc1c[nH]c2ccccc12)NC(=O)[C@H](CCC(N)=O)NC(=O)CCCCNC(=O)CC[C@H](NC(=O)[C@H](CCCCn1nnc2c1-c1ccccc1CN(C(=O)CCNC(=O)CCOCCOCCOCCOCCNC(=O)CCN1C(=O)CC(SC[C@H](NC(=O)[C@H](Cc3ccc(O)cc3)NC(=O)[C@H](CCC(=O)O)NC(=O)[C@H](CC(=O)O)NC(=O)[C@@H](NC(=O)[C@@H](NC(=O)[C@H](CCC(=O)O)NC(=O)[C@@H]3CCCN3C(=O)[C@H](CC(C)C)NC(=O)[C@@H]3CCCN3C(=O)[C@H](CCCCN)NC(=O)[C@@H](N)CO)C(C)C)[C@@H](C)O)C(=O)O)C1=O)c1ccccc1-2)NC(=O)CCCCNC(=S)Nc1ccc(C[C@H]2CN(CC(=O)O)CCN(CC(=O)O)CCN2CC(=O)O)cc1)C(=O)NCCCCC(=O)N[C@@H](CCC(N)=O)C(=O)N[C@@H](Cc1c[nH]c2ccccc12)C(=O)N[C@@H](C)C(=O)N[C@H](C(=O)N(C)CC(=O)N[C@@H](Cc1c[nH]cn1)C(=O)N[C@H](CCC(=O)N[C@H](C(N)=O)C(C)(C)C)[C@@H](C)CC)C(C)C)C(C)C (stereo partly shown) [dimeric ^68Ga-(BBN2)2 TM, metal not drawn]
SUV at 1 h [1]: 0.51 ± 0.1 SUV
in vivo blocking of tumor uptake (LNCaP tumors): 43 ± 3%
SUV at 1 h [2]: 0.38 ± 0.03 SUV
intact 68Ga-peptide remaining [3]: 93 ± 1%
